# Source: the supplement of paper PMC10266784
# B1: library; numbered along this chain (parent)
# chain: MAAAAAAAAEQQSSNGPVKKSMREKAVERRSVNKEHNSNFKAGYIPIDEDRLHKTGLRGRKGNLAICVIILLFILAVINLIITLVIWAVIRIGPNGCDSMEFHESGLLRFKQVSDMGVIHPLYKSTVGGRRNENLVITGNNQPIVFQQGTTKLSVENNKTSITSDIGMQFFDPRTQNILFSTDYETHEFHLPSGVKSLNVQKASTERITSNATSDLNIKVDGRAIVRGNEGVFIMGKTIEFHMGGNMELKAENSIILNGSVMVSTTRLPSSSSGDQLGSGDWVRYKLCMCADGTLFKVQVTSQNMGCQISDNPCGNTH
# Variants of: B1
# Assay: SGCB cell-surface expression functional score (HA stain, bin4 vs bin1, normalised to synonymous) (log10 ratio); higher = more cell-surface SGCB (functional)
# Procedure: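 Deep mutational scan of full-length human SGCB (YFP-SGCB-HA, NNN codon sublibraries A-F) delivered by lentivirus at low MOI into ADG-HEK293 cells stably expressing SGCA, SGCD and SGCG. YFP-positive cells were stained for surface HA on unpermeabilized cells and FACS-sorted into bins. The functional score is log10(frequency in high bin 4 / frequency in low bin 1), normalised per chunk so that synonymous variants have mean 0 and SD 0.5. Scores are the median over codons and over duplicate biological replicates; scores below -0.5 are called non-functional. Scale: negative means deleterious.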
row,Variant,SGCB cell-surface expression functional score (log10)
1,K41H,0.22
2,K41L,0.1
3,K41Q,0.4
4,K41T,0.26
5,K41D,-0.08
6,K41R,-0.25
7,K41G,-0.27
8,K41P,0.21
9,K41F,-0.47
10,K41S,0.28
11,K41E,0.61
12,K41A,0.77
13,K41V,0.04
14,K41N,0.25
15,K41C,-0.2
16,K41M,0.55
17,K41I,-0.28
18,K41Y,-0.07
19,K41W,0.02
20,N33W,-0.14
21,N33E,0.11
22,N33Q,-0.23
23,N33L,-0.11
24,N33K,0.24

row,Variant,SGCB cell-surface expression functional score (log10)
1,N33P,0.04
2,N33A,0.36
3,N33C,-0.01
4,N33S,-0.01
5,N33R,0.1
6,N33M,0.11
7,N33G,0.33
8,N33F,0.1
9,N33D,0.4
10,N33Y,0.04
11,N33T,-0.07
12,N33V,0.23
13,N33H,0.48
14,N33I,0.03
15,P46N,0.18
16,P46Y,0.03
17,P46M,0
18,P46K,-0.07
19,P46T,0.21
20,P46E,0.1
21,P46L,-0.2
22,P46R,-0.18
23,P46A,-0.03
24,P46Q,0.28

row,Variant,SGCB cell-surface expression functional score (log10)
1,P46C,0.44
2,P46D,-0.14
3,P46G,0.65
4,P46W,-0.33
5,P46H,0.31
6,P46V,-0.23
7,P46F,0.22
8,P46I,0.27
9,P46S,0.15
10,N39D,0.41
11,N39R,-0.29
12,N39M,-0.61
13,N39A,-0.05
14,N39W,-0.81
15,N39C,0.2
16,N39V,0.44
17,N39G,0.13
18,N39Q,0.07
19,N39L,-0.02
20,N39Y,-0.08
21,N39E,0.54
22,N39H,-0.1
23,N39P,-0.17
24,N39I,-0.18

row,Variant,SGCB cell-surface expression functional score (log10)
1,N39S,0.02
2,N39F,-0.12
3,N39T,-0.1
4,N39K,0.08
5,I45V,0.48
6,I45T,0.15
7,I45C,-0.09
8,I45S,-0.08
9,I45K,-0.41
10,I45R,-0.17
11,I45L,-0.03
12,I45F,-0.02
13,I45N,0.15
14,I45H,0.03
15,I45M,0.43
16,I45Y,0.68
17,I45G,-0.04
18,I45P,0.52
19,I45A,0.33
20,I45E,0.23
21,I45W,0.91
22,I45Q,-0.67
23,I45D,0.9
24,G43K,0.2

row,Variant,SGCB cell-surface expression functional score (log10)
1,G43R,0.51
2,G43L,-0.21
3,G43E,0.18
4,G43N,0.18
5,G43P,0.76
6,G43A,0.25
7,G43M,-0.74
8,G43C,-0.02
9,G43Q,0.32
10,G43Y,-0.59
11,G43T,0.05
12,G43H,0.33
13,G43D,0.22
14,G43W,0.34
15,G43F,-0.52
16,G43S,0.34
17,G43I,-0.07
18,G43V,0.07
19,E35D,0.11
20,E35L,-0.2
21,E35G,0.11
22,E35V,0.1
23,E35M,0.1
24,E35R,0.18

row,Variant,SGCB cell-surface expression functional score (log10)
1,E35K,0.23
2,E35H,0.32
3,E35F,-0.1
4,E35I,0.08
5,E35T,0.06
6,E35Q,-0.06
7,E35A,0.3
8,E35S,0.03
9,E35P,-0.21
10,E35C,-0.07
11,E35Y,0.26
12,E35W,0.28
13,E35N,0.01
14,H36M,-0.06
15,H36D,0.26
16,H36K,0.53
17,H36Y,0.15
18,H36R,-0.04
19,H36W,-0.09
20,H36P,0.32
21,H36T,-0.13
22,H36C,-0.16
23,H36V,0.28
24,H36L,-0.04

row,Variant,SGCB cell-surface expression functional score (log10)
1,H36A,0.35
2,H36Q,0.22
3,H36G,0.11
4,H36I,0.09
5,H36E,0.05
6,H36N,0.25
7,H36F,-0.16
8,H36S,0.21
9,E49Q,-0.19
10,E49P,0.54
11,E49F,0.11
12,E49K,0.42
13,E49I,0.51
14,E49D,0.02
15,E49W,0.56
16,E49T,0.27
17,E49Y,0.09
18,E49M,0.12
19,E49R,0.35
20,E49N,0.48
21,E49A,0.29
22,E49H,-0.23
23,E49G,0.17
24,E49V,0.12

row,Variant,SGCB cell-surface expression functional score (log10)
1,E49L,-0.04
2,E49S,0.15
3,E49C,0.3
4,F40C,0.25
5,F40K,0.55
6,F40T,0.19
7,F40W,-0.21
8,F40A,0.18
9,F40P,-0.13
10,F40Q,0.03
11,F40E,0.01
12,F40I,0.24
13,F40M,-0.28
14,F40S,0.16
15,F40L,-0.13
16,F40N,-0.16
17,F40V,0.27
18,F40H,-0.44
19,F40Y,0.49
20,F40D,0.12
21,F40G,-0.49
22,F40R,-0.05
23,D50K,0.54
24,D50L,0.12

row,Variant,SGCB cell-surface expression functional score (log10)
1,D50E,0.3
2,D50C,0
3,D50F,0.27
4,D50G,0.3
5,D50A,0.14
6,D50I,0.07
7,D50H,0.24
8,A42N,-0.67
9,A42P,0.02
10,A42K,0.18
11,A42C,0.21
12,A42D,-0.28
13,A42M,0.33
14,A42T,0.1
15,A42H,-0.08
16,A42V,-0.08
17,A42W,0.29
18,A42F,-0.42
19,A42I,-0.45
20,A42G,0.22
21,A42E,0.71
22,A42Q,-0.07
23,A42R,-0.08
24,A42Y,-0.17

row,Variant,SGCB cell-surface expression functional score (log10)
1,A42S,0.1
2,A42L,-0.02
3,K34F,-0.14
4,K34E,0.34
5,K34G,0.01
6,K34Y,0.56
7,K34R,0.1
8,K34W,0.11
9,K34V,0.44
10,K34D,0.26
11,K34N,-0.07
12,K34S,0.52
13,K34T,0.27
14,K34L,0.21
15,K34A,-0.03
16,K34C,0.33
17,K34M,-0.24
18,K34I,-0.05
19,K34H,0.6
20,K34P,0.25
21,K34Q,-0.08
22,S38Q,-0.18
23,S38A,-0.36
24,S38C,-0.16

row,Variant,SGCB cell-surface expression functional score (log10)
1,S38K,0.36
2,S38I,-0.09
3,S38W,-0.17
4,S38H,0.06
5,S38L,-0.26
6,S38R,-0.01
7,S38N,0.37
8,S38M,-0.54
9,S38V,-0.31
10,S38G,0.07
11,S38F,-0.14
12,S38E,0.31
13,S38Y,-0.07
14,S38T,-0.04
15,S38D,0.3
16,S38P,-0.2
17,D48H,0.33
18,D48Y,0.4
19,D48P,0.18
20,D48S,0.3
21,D48V,0.07
22,D48N,0.13
23,D48K,-0.09
24,D48R,-0.06

row,Variant,SGCB cell-surface expression functional score (log10)
1,D48I,0.19
2,D48W,0.22
3,D48Q,-0.36
4,D48T,-0.04
5,D48G,-0.07
6,D48F,0.37
7,D48M,0.77
8,D48L,0.18
9,D48C,0.13
10,D48A,0.6
11,D48E,-0.17
12,N37L,0.05
13,N37G,-0.15
14,N37E,0.3
15,N37D,-0.35
16,N37F,-0.14
17,N37P,-0.1
18,N37I,0.02
19,N37A,0.08
20,N37R,-0.21
21,N37K,-0.39
22,N37W,-0.53
23,N37Y,-0.46
24,N37M,-0.37

row,Variant,SGCB cell-surface expression functional score (log10)
1,N37V,-0.13
2,N37S,-0.21
3,N37Q,-0.21
4,N37H,0.41
5,N37T,-0.11
6,N37C,0.35
7,V32W,-0.05
8,V32Y,-0.45
9,I47E,0.72
10,I47V,0.12
11,I47D,0.59
12,I47F,-0.49
13,I47H,0.63
14,I47K,0.52
15,I47N,0.73
16,I47S,0.29
17,I47W,-0.62
18,I47C,0.31
19,I47Y,0.65
20,I47R,-0.19
21,I47A,0.17
22,I47P,0.47
23,I47G,0.36
24,I47L,-0.14

row,Variant,SGCB cell-surface expression functional score (log10)
1,I47T,0.58
2,I47M,0.47
3,I47Q,0.68
4,Y44A,0.04
5,Y44N,-0.24
6,Y44D,0.53
7,Y44Q,0.8
8,Y44G,0.59
9,Y44M,0.39
10,Y44C,0.8
11,Y44P,0.61
12,Y44V,0.64
13,Y44S,0.14
14,Y44R,0.08
15,Y44W,0.07
16,Y44L,0.55
17,Y44K,0.04
18,Y44F,0.02
19,Y44E,0.75
20,Y44T,0.39
21,Y44H,0.01
22,Y44I,0.42
